Test [1] has as its target T1, human TSLP (human, UniProt Q969D9 29-159).
T1 construct: also called hTSLP; h-TSLP
In words: SPR (ProteOn XPR36), IgG captured, hTSLP as analyte 3.2 to 0.2 nM.

Test [2] addresses T2, recombinant human IL-13 (human, UniProt P35225 35-146).
T2 construct: also called rh-IL-13; rhIL-13
Briefly: SPR, IgG captured, hIL-13 as analyte, steady state. (In general: SPR reads the build-up and loss of mass on a sensor chip optically.)
Method: Subsequent to a cycle, the analyte and tested antibody were stripped from the chip and new tested Ab was loaded on the chip as described above. KD was determined at a steady state condition.

For test [3], the target named is T3, recombinant human IL-13 (rh-IL-13)-Fc (human, UniProt P35225 35-146, limits assumed).
T3 construct: used for yeast surface display labelling; not shown: Fc (detected with anti human Fc)
Briefly: yeast surface display scFv, flow cytometry, 10 nM rh-IL-13. On the technique in general: A flow cytometer gives signals particle by particle.

Test [4] deals with T3, recombinant human IL-13 (rh-IL-13)-Fc. Briefly: yeast surface display flow cytometry, 10 nM rh-IL-13-Fc; MFI normalized to expression and to the positive control.
Method: Isolated clones from the final sort were sequenced by extraction of plasmid DNA from the yeast clones using a Zymoprep kit (Zymo Research, USA) and the DNA was sequenced. […] Cells were washed and resuspended in ice-cold PBS 0.1% BSA buffer containing a fluorescent labeled secondary antibody as described above for 20 min and analyzed using a flow cytometer.
Test [5] deals with T4, recombinant human TSLP (hTSLP)-Fc (human, UniProt Q969D9 29-159, limits assumed).
T4 construct: used for yeast surface display labelling; also called rhTSLP; not shown: Fc
In words: yeast surface display flow cytometry, 10 nM hTSLP-Fc; MFI normalized to expression and to the positive control.

Test [6] deals with T5, recombinant human OX40 tagged with histidine tag (hOX40-His) (human, UniProt P43489 29-216).
T5 construct: bought (Reprokine); also called hOX-His; not shown: histidine tag
T5 sequence (looked up): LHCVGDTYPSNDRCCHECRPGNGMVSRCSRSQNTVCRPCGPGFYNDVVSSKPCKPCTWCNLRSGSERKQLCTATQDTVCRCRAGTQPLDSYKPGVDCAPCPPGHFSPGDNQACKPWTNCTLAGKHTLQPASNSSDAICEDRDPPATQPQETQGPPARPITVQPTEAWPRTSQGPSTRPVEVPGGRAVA
Briefly: yeast surface display scFv, flow cytometry, 90 nM hOX40-His.

Test [7] concerns the target T6, recombinant human PD-1 tagged with histidine tag (hPD-1-His) (human, UniProt Q15116 25-167, limits assumed).
T6 construct: bought (Reprokine); not shown: histidine tag
Briefly: yeast surface display flow cytometry: scFv on yeast, 30 nM hPD-1-His, anti-His-APC; median RFU.

The target in test [8] is T5, recombinant human OX40 tagged with …. Briefly: yeast surface display flow cytometry: scFv on yeast, 90 nM hOX40-His, anti-His-APC; median RFU.
Test [9] concerns the target T6, recombinant human PD-1 tagged with …. In words: yeast surface display scFv, flow cytometry.
Method: The library was screened on BioRad S3e Fluorescence Activated Cell Sorter (FACS) for high affinity binders of recombinant h-GITR-His, or recombinant h-PD1-His, or recombinant h-OX40-His (Reprokine) using mouse anti Myc-FITC (Santa Cruze, USA) and goat anti-His-APC (Miltenyi Biotec, Germany) for fluorescence labeling. […] The chosen clones were incubated for 1 hour at room temperature with recombinant h-GITR-His, or hPD1-His, or hOX40-His, at the concentrations described in the example section. Cells were washed and resuspended in ice-cold PBS 0.1% BSA buffer containing a fluorescent labeled secondary antibody as described above for 20 min and analyzed using a flow cytometer. The values obtained were normalized to expression levels.
In test [10] the target is T7, recombinant human GITR tagged with histidine tag (hGITR-His) (human, UniProt Q9Y5U5 26-161, limits assumed).
T7 construct: bought (Reprokine); not shown: histidine tag
T7 sequence (looked up): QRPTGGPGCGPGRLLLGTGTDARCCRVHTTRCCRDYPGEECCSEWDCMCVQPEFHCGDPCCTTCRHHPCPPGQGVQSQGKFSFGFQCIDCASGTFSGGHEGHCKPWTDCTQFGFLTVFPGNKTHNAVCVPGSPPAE
Briefly: yeast surface display scFv, flow cytometry.

Residue numbers refer to the chain shown, from its start.

T3 sequence (P35225 35-146 limits assumed): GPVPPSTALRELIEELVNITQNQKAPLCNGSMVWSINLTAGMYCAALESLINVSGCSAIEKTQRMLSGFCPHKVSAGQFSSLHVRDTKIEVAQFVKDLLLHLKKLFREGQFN
T6 sequence (Q15116 25-167 limits assumed): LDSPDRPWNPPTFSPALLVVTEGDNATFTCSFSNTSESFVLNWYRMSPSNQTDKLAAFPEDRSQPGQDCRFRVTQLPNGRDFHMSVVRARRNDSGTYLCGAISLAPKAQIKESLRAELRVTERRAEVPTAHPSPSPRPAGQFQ
T2 sequence (P35225 35-146 limits assumed): as the sequence (P35225 35-146 limits assumed) above

B1: BDG33.004 (antibody, human IgG1, V domains shown)
VH: QMQLVESGGGVVQPGRSLRLSCAASGFTFRTYGMHWVRQAPGKGLEWVAVIWYDGSNKHYADSVKGRFTITRDNSKNTLNLQMNSLRAEDTAVYYCARAPQWMLVAEAFDLWGQGTMVTVSS
VL: SYVLTQPPSVSVAPGQTARITCGGNLIGSKLVHWYQQKPGQAPVLVVYDDSDRPSRIPERFSGSNSGNTATLTISRVEAGDEADYYCQVWDSSSDHVVFGGGTKLTVL
notes: human IgG1; also called BGD33.004; Clone C6 as IgG1
Broadly, the Kd is the concentration at which binding is half-saturated. For orientation: koff means a measure of how fast the partners let go of each other. Broadly, the kon is the second-order rate constant of association. As to B1, in test [1], the Kd is 3.33 nM, the koff was determined as 0.00114 s⁻¹ and the kon was 344000 M⁻¹ s⁻¹. Further, the Kd in test [2] amounted to 57.4 nM.

B2: C9 (yeast-displayed scFv clone) (scFv, V domains shown)
VH: B1 VH with A99S, M103E, L104W, A106H
VL: B1 VL with S51G, R56W, H96G
notes: also called Clone C9; C9-VH-L-VL; not shown: linker
For B2, the “relative affinity (normalized MFI against the positive control)” value in test [3] was > 20 % of positive control.

B3: C26 (scFv, V domains shown)
VH: B1 VH with M103E, V105T
VL: B1 VL with L26I, S51G, R56G, S92T
notes: also called C26-VH-L-VL
For B3, the binding result in test [4] and in test [5] was “binds” throughout.

B4: C45 (scFv, V domains shown)
VH: B1 VH with M103E, V105T, A106S
VL: B1 VL with R56E, H96G
notes: also called C45-VH-L-VL
Turning to B4, the binding result in test [5] is on record as “binds”.

B5: C13 (scFv, V domains shown)
VH: B1 VH with M103E
VL: B1 VL with I27L, S51G, R56L, S92T
notes: also called C13-VH-L-VL
As to B5, the binding result in test [5] is reported as “binds”.

B6: C2 (yeast-displayed scFv clone) (scFv, V domains shown)
VH: B1 VH with M103E, V105T, L111I
VL: B1 VL with R56L, H96G
notes: also called Clone C2; C2-VH-L-VL; not shown: linker
In the case of B6, the “relative affinity (normalized MFI against the positive control)” value in test [3] was > 20 % of positive control.

B7: BDG33.003 (antibody, human IgG1, V domains shown)
VH: B1 VH with M103E, V105T, L111I
VL: B1 VL with R56L, H96G
notes: also called BGD33.003; Clone C2 as IgG1
In [1], B7 had a Kd of 4.5 nM, a koff of 0.00129 s⁻¹ and a kon of 287000 M⁻¹ s⁻¹. In addition, in test [2], the Kd was 21.6 nM.

B8: C40 (yeast-displayed scFv clone) (scFv, V domains shown)
VH: B1 VH with A99S, M103E, L104W, A106H
VL: B1 VL with L26N, S92T, H96G
notes: also called C40-VH-L-VL; not shown: linker
Consider B8, for which the binding result in test [5] is “binds”. Besides, in test [3], the “relative affinity (normalized MFI against the positive control)” value is > 20 % of positive control.

B9: C39 (scFv, V domains shown)
VH: B1 VH with M103E, V105T
VL: B1 VL with I27L, R56W, S92T
notes: also called C39-VH-L-VL
On to B9, for which the binding result in test [4] and in test [5] was “binds” each time.

B10: C43 (scFv, V domains shown)
VH: B1 VH with M103Q, L111I
VL: B1 VL with R56A, S92T, H96G
notes: also called C43-VH-L-VL
On to B10, for which the binding result in test [4] and in [5] was “binds” throughout.

B11: C15 (scFv, V domains shown)
VH: B1 VH with M103E
VL: B1 VL with S51G, R56W, S93G, H96G
notes: also called C15-VH-L-VL
As to B11, in test [5], the binding result is “binds”.

B12: C37 (scFv, V domains shown)
VH: B1 VH with M103E, L111M
VL: B1 VL
notes: also called C37-VH-L-VL
As for B12, the binding result in test [4] and in [5] was “binds” in each case.

B13: C17 (scFv, V domains shown)
VH: B1 VH with M103E, V105T, A106S
VL: B1 VL with R56A, S92T
notes: also called C17-VH-L-VL
As to B13, in test [5], the binding result is “binds”.

B14: C6 (yeast-displayed scFv clone) (scFv, V domains shown)
VH: B1 VH
VL: B1 VL
notes: also called Clone C6; C6-VH-L-VL; not shown: linker
With B14, the “relative affinity (normalized MFI against the positive control)” value in test [3] was > 20 % of positive control.

B15: 3212ACOXC14 (OX40 library) (scFv, V domains shown)
VH: QVQLVESGGGVVQPGRSLRLDCKASGIEFSNSGMHWVRQAPGKGLEWVAVIWYDGSKRYYADSVKGRFTISRDNSKNTLFLQMNSLRAEDTAVYYCATNDDYWGQGTLVTVSS
VL: EIVLTQSPATLSLSPGERATLSCRASQSVEHYLAWYQQKPGQAPRLLIYDASNRATGIPARFSGSGSGTDFTLTISSLEPEDFAVYYCQQYSNWPLTFGQGTKVEIK
notes: not shown: linker
Take B15: in test [6], the binding result is given as “binds”.

B16: 1B_seq96_13753_B01_4279975 (OX40 Library) (scFv, V domains shown)
VH: B15 VH with E28T
VL: B15 VL with E30I
notes: not shown: linker
Take B16: the binding result in test [7] and in test [8] was “binds” each time.

B17: 3212ACOXC23 (OX40 library) (scFv, V domains shown)
VH: B15 VH with E28D, V48L, T98S
VL: B15 VL with E30I, S92E
notes: not shown: linker
Turning to B17, the binding result in test [7] and in test [8] was “binds” throughout.

B18: OX-Clone71 (OX40 library) (scFv, V domains shown)
VH: B15 VH with E28D, T98S
VL: B15 VL with R54P
notes: not shown: linker
Regarding B18, the binding result in test [6] was “binds”.

B19: G5 (GITR Library) (scFv, V domains shown)
VH: B15 VH with Q13H, L20V, E28T, K57L
VL: B15 VL with E30S, H31D, Y32N, S52D, E79A, Y91S, W94L, L96R
notes: not shown: linker
With B19, the binding result in test [9] and in [10] was “binds” throughout.

B20: 3212ACOXC31 (OX40 library) (scFv, V domains shown)
VH: B15 VH with E28T, R58A
VL: B15 VL with E30Y, S52E, S92N, N93D
notes: not shown: linker
With B20, the binding result in test [6] was “binds”.

B21: OX-Clone36 (OX40 library) (scFv, V domains shown)
VH: B15 VH with E28D, T98S
VL: B15 VL with E30I, S92D
notes: not shown: linker
Regarding B21, the binding result in test [6] was “binds”.

B22: 3212ACOXC61 (OX40 library) (scFv, V domains shown)
VH: B15 VH with E28A, R58T
VL: B15 VL with E30I, S92T
notes: not shown: linker
For B22, the binding result in [7] and in test [8] was “binds” throughout.

B23: 3212ACOXC21 (OX40 library) (scFv, V domains shown)
VH: B15 VH with T98S
VL: B15 VL with E30D, R54F
notes: not shown: linker
In the case of B23, in test [6], the binding result is “binds”.

B24: 3212ACOXC10 (OX40 library) (scFv, V domains shown)
VH: B15 VH with E28D, Y59L, T98S
VL: B15 VL with E30I, S92D
notes: not shown: linker
For the molecule B24, in test [6], the binding result was “binds”.

B25: G8 (GITR Library) (scFv, V domains shown)
VH: B15 VH with E28T, K57L, T98S
VL: B15 VL with E30S, H31D, Y32N, S52D, Y91S, W94L, L96R
notes: not shown: linker
In the case of B25, the binding result in test [9] and in test [10] was “binds” throughout.
